Data published in US20230257453A1 (published 2023).

Key:
[1] = target: denatured human collagen type IV (UniProt P02462 173-1669; P08572 184-1712); assay: ELISA
[2] = target: denatured human collagen I (UniProt P02452 162-1218; P08123 80-1119); assay: ELISA
Sequence of denatured human collagen I (P02452 162-1218 A1075T, chain 1 of 2): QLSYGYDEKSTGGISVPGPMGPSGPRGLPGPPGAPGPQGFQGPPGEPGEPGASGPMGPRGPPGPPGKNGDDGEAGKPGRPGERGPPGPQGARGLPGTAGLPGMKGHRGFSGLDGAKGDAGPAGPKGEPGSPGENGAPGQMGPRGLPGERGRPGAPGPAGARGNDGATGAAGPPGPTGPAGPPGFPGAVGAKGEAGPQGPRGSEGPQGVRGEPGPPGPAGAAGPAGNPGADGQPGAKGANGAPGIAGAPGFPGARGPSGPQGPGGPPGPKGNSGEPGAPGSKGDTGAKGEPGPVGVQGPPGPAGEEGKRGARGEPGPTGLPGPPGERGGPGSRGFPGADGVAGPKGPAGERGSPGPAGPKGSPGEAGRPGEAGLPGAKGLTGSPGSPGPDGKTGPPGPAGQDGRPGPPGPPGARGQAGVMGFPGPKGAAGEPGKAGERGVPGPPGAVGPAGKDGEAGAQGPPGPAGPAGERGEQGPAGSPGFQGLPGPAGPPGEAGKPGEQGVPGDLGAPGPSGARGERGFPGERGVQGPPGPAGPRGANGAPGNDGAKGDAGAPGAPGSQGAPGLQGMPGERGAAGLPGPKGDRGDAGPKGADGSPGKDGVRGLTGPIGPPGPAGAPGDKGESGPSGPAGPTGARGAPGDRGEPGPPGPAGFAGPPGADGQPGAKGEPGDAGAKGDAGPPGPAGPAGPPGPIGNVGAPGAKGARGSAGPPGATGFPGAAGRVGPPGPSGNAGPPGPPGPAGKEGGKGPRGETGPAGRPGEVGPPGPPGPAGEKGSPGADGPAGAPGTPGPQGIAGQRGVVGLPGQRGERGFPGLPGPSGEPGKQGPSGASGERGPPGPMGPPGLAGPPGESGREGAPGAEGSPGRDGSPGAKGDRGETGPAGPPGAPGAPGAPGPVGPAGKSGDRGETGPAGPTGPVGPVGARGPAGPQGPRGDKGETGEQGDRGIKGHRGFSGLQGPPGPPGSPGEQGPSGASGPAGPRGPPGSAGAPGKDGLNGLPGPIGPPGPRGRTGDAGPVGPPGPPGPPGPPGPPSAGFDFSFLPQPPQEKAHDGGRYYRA
Sequence of denatured human collagen I (P08123 80-1119, chain 2 of 2): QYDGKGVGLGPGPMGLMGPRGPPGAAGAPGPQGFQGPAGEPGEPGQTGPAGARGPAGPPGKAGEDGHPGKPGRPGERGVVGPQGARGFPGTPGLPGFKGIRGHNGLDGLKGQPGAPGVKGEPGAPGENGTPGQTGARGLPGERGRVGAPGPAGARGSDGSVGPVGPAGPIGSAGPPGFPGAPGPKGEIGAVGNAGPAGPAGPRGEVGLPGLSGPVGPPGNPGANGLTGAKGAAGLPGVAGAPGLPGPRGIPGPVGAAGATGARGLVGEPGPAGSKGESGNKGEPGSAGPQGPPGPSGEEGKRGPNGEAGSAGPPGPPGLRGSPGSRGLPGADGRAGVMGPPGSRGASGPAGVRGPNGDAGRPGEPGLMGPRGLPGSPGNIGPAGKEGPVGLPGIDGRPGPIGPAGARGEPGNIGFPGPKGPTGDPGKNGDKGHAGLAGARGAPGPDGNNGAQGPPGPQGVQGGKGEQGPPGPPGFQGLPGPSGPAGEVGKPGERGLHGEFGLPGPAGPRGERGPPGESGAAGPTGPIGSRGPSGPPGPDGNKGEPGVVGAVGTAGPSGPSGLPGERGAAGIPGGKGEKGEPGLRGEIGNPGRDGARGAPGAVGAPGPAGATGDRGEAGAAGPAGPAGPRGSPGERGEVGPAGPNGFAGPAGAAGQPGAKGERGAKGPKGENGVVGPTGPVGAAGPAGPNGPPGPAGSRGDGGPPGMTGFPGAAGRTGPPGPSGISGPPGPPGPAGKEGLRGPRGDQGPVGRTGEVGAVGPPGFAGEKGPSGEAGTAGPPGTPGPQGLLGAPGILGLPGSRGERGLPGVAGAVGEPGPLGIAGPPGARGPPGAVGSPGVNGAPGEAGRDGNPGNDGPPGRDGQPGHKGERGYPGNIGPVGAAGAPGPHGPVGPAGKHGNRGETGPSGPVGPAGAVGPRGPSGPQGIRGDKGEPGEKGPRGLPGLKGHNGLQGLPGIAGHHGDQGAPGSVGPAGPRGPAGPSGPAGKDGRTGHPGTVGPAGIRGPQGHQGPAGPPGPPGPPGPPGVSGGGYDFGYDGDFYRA

Sequence of denatured human collagen type IV (P02462 173-1669, chain 1 of 2): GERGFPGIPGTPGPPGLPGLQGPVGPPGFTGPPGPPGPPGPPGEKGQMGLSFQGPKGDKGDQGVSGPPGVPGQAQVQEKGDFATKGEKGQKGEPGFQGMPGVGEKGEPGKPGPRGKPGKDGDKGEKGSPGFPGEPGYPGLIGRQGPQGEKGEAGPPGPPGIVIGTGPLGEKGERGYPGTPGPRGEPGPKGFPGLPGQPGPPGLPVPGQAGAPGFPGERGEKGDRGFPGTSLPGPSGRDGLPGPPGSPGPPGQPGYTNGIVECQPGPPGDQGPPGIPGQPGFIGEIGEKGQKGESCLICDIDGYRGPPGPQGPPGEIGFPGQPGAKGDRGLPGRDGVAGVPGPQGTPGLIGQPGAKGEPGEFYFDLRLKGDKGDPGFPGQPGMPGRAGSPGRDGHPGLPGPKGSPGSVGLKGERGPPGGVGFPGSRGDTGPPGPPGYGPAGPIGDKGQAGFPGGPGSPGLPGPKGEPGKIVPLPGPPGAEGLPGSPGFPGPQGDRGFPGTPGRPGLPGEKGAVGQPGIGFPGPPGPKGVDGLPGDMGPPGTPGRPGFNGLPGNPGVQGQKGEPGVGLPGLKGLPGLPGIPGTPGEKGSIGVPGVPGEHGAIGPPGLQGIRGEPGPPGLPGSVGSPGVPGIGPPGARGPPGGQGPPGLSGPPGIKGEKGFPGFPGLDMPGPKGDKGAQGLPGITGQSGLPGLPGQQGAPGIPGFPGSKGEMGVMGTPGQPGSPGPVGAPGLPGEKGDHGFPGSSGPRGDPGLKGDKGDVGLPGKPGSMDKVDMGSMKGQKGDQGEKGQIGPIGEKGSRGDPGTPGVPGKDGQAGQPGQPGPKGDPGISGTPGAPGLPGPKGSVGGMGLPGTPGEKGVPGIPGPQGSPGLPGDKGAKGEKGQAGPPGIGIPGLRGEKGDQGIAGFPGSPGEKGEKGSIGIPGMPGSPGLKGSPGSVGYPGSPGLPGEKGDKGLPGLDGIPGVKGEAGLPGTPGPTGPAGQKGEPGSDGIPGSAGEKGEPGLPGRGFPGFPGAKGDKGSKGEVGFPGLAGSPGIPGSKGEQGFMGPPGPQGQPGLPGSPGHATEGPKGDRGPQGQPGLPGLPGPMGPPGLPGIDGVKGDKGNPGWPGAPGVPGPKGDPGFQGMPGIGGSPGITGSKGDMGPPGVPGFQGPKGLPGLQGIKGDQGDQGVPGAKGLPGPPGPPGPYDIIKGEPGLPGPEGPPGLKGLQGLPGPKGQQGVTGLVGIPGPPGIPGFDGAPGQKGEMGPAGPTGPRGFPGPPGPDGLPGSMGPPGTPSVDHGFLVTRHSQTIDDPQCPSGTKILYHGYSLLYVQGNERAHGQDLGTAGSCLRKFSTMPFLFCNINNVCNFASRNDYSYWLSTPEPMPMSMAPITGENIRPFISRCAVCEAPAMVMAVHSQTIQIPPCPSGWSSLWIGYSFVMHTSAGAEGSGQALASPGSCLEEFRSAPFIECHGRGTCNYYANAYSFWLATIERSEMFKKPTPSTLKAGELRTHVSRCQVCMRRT
Sequence of denatured human collagen type IV (P08572 184-1712, chain 2 of 2): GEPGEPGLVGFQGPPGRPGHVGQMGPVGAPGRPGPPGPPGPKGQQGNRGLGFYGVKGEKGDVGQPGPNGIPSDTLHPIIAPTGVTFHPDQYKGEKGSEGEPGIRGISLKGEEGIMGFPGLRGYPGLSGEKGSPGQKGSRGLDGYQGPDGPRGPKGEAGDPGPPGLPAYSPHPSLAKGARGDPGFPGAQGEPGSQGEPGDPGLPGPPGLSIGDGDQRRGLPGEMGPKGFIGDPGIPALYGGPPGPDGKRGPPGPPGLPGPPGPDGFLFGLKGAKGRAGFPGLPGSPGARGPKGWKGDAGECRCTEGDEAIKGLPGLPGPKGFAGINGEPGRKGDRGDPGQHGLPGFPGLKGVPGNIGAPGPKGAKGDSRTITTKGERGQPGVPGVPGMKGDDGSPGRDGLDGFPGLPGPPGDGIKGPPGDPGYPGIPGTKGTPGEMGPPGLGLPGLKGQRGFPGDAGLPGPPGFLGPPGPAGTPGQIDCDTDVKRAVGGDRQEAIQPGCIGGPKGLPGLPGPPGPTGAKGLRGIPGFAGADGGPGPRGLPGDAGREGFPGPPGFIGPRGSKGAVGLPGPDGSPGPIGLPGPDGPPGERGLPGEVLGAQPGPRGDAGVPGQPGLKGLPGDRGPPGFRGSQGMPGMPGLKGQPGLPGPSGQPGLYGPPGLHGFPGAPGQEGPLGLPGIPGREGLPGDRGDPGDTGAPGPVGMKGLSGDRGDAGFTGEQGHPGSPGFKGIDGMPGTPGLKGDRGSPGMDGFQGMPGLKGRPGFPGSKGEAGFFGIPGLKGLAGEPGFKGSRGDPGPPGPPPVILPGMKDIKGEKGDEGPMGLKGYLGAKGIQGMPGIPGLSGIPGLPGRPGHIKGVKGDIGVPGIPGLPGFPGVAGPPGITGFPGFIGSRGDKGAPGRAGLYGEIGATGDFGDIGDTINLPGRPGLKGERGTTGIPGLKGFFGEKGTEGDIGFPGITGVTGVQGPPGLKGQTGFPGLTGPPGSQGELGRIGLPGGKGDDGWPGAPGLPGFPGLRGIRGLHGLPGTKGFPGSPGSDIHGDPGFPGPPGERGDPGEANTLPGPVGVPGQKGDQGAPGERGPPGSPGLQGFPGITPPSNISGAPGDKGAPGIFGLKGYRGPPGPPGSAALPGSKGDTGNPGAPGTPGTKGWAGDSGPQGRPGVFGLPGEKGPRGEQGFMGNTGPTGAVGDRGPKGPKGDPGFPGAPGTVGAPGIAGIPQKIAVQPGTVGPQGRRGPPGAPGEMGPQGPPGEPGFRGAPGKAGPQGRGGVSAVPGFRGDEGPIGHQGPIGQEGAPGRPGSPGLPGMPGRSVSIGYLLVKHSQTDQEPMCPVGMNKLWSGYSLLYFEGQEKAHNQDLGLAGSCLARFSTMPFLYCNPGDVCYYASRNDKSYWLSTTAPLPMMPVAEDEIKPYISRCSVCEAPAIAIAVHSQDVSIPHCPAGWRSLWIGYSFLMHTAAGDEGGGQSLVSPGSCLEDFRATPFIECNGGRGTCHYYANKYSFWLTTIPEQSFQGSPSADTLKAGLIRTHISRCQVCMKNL

EC50 [1]	EC50 [2]	Binder
12 nM	36.2 nM	P27562716 (antibody, V domains shown) VH: EVQLVESGGGLVQPGGSLRLSCAASGFTFSTPGMGVWWVRQAPGKGLEWLADIWWDDNKYTNPSLKSRFTISRDNAKNSLYLQMNSLRAEDTAVYYCARRANYGNPYYAQDYWGQGTTVTVSS VL: DIVMTQTPLSLPVTPGEPASISCRSSQSIVSSWGNTYLEWYLQKPGQSPQLLIYKVSNRFSGVPDRFSGSGSGTDFTLKISRVEAEDVGVYYCFQGSHVPWTFGQGTKVEIKR
9.01 nM	18.3 nM	P27532716 (antibody, V domains shown) VH: EVQLVESGGGLVQPGGSLRLSCAASGFTLSTPGMGVWWVRQAPGKGLEWVADIWWDDNKYTNPSLKSRFTISRDNAKNSLYLQMNSLRAEDTAVYYCARRANYGNPYYAQDYWGQGTTVTVSS VL: DIVMTQTPLSLPVTPGEPASISCRSSQSIVSSWGNTYLEWYLQKPGQSPQLLIYKVSNRFSGVPDRFSGSGSGTDFTLKISRVEAEDVGVYYCFQGSHVPWTFGQGTKVEIKR
12.2 nM	36.6 nM	P27552716 (antibody, V domains shown) VH: EVQLVESGGGLVQPGGSLRLSCAASGFTFSTPGMGVWWIRQAPGKGLEWVADIWWDDNKYTNPSLKSRFTISRDNAKNSLYLQMNSLRAEDTAVYYCARRANYGNPYYAQDYWGQGTTVTVSS VL: DIVMTQTPLSLPVTPGEPASISCRSSQSIVSSWGNTYLEWYLQKPGQSPQLLIYKVSNRFSGVPDRFSGSGSGTDFTLKISRVEAEDVGVYYCFQGSHVPWTFGQGTKVEIKR
6.37 nM	14.8 nM	P27542716 (antibody, V domains shown) VH: EVQLVESGGGLVQPGGSLRLSCAASGFSLSTPGMGVWWVRQAPGKGLEWVADIWWDDNKYTNPSLKSRFTISRDNAKNSLYLQMNSLRAEDTAVYYCARRANYGNPYYAQDYWGQGTTVTVSS VL: DIVMTQTPLSLPVTPGEPASISCRSSQSIVSSWGNTYLEWYLQKPGQSPQLLIYKVSNRFSGVPDRFSGSGSGTDFTLKISRVEAEDVGVYYCFQGSHVPWTFGQGTKVEIKR
16.1 nM	22.1 nM	P27522716 (antibody, V domains shown) VH: EVQLVESGGGLVQPGGSLRLSCAASGFSFSTPGMGVWWVRQAPGKGLEWVADIWWDDNKYTNPSLKSRFTISRDNAKNSLYLQMNSLRAEDTAVYYCARRANYGNPYYAQDYWGQGTTVTVSS VL: DIVMTQTPLSLPVTPGEPASISCRSSQSIVSSWGNTYLEWYLQKPGQSPQLLIYKVSNRFSGVPDRFSGSGSGTDFTLKISRVEAEDVGVYYCFQGSHVPWTFGQGTKVEIKR
18.8 nM	20800 nM	P27572716 (antibody, V domains shown) VH: EVQLVESGGGLVQPGGSLRLSCAASGFTFSTPGMGVWWVRQAPGKGLEWVADIWWDDNKYTNPSLKSRLTISRDNAKNSLYLQMNSLRAEDTAVYYCARRANYGNPYYAQDYWGQGTTVTVSS VL: DIVMTQTPLSLPVTPGEPASISCRSSQSIVSSWGNTYLEWYLQKPGQSPQLLIYKVSNRFSGVPDRFSGSGSGTDFTLKISRVEAEDVGVYYCFQGSHVPWTFGQGTKVEIKR
32.6 nM	8570 nM	P27122797 (antibody, V domains shown) VH: QVTLKESGPALVKPTQTLTLTCTFSGFSLSTSGMGVGWIRQPPGKALEWLADIWWDDNKYANPSLKSRLTISKDTSKNQVVLTMTNMDPVDTATYYCARRANYGNPYYAQDYWGQGTTVTVSS VL: DIVMTQTPLSLPVTPGEPASISCRSSQSIVHSSGNTYLEWYLQKPGQSPQLLIYKVSNRFSGVPDRFSGSGSGTDFTLKISRVEAEDVGVYYCFQGSHVPWTFGQGTKVEIKR
10.8 nM	27.2 nM	P27122798 (antibody) chain 1: not shown chain 2: DIVMTQTPLSLPVTPGEPASISCRSSQSIVHSNANTYLEWYLQKPGQSPQLLIYKVSNRFSGVPDRFSGSGSGTDFTLKISRVEAEDVGVYYCFQGSHVPWTFGQGTKVEIKRTVAAPSVFIFPPSDEQLKSGTASVVCLLNNFYPREAKVQWKVDNALQSGNSQESVTEQDSKDSTYSLSSTLTLSKADYEKHKVYACEVTHQGLSSPVTKSFNRGEC
